Patent publication US20200377590A1 (Hoffmann-La Roche, published 2020)

T1: CD81 (UniProt P60033 1-236, limits assumed)
T1 construct: whole, on cells; also called CD81 receptor
T1 sequence (looked up): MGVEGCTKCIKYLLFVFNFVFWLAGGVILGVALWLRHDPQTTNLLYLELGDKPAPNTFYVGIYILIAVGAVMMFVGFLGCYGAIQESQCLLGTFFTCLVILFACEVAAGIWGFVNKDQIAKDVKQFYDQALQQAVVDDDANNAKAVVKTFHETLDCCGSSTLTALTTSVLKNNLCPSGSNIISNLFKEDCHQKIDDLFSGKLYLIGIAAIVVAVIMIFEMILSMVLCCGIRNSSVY

B1: CD81K13 HC 5b-hVH_1_69-GA / LC 5b-hVK_1_39-GA (antibody, V domains shown)
VH: QVQLVQSGAELVKPGSSVKVSCKASGFNFKDSYLHWVRQAPGQGLEWMGRIDTGNGNVKFDPKFQGRVTITTDESTSTAYMELSSLRSEDTAVYYCVPYGYGFHSWGQGTLVTVSS
VL: DIQMTQSPSSLSASVGDRVTITCRASENIYRTLAWYQQKPGKAPKLLIYGATTLADGVPSRFSGSGSGTDFTLTISSLQPEDFATYYCQHFWGTPWTFGQGTKVEIK
notes: human constant region
B2: CD81K13 HC 06-hVH_1_3 / LC 5b-hVK_1_39 (antibody, V domains shown)
VH: QVQLVQSGAEVKKPGASVKVSCKASGYTFKDSYLHWVRQAPGQRLEWMGRIDTGNGNVKFDPKFQGRVTITTDTSASTAYMELSSLRSEDTAVYYCAPYGYGFHSWGQGTLVTVSS
VL: DIQMTQSPSSLSASVGDRVTITCRASENIYRTLAWYQQKPGKAPKLLIYGATTLADGVPSRFSGSGSGTDFTLTISSLQPEDFATYYCQHFWGTPWTFGQGTKVEIK
notes: human constant region
B3: CD81K13 HC 06-hVH_1_3 / LC 05-hVK_1_39 (antibody, V domains shown)
VH: QVQLVQSGAEVKKPGASVKVSCKASGYTFKDSYLHWVRQAPGQRLEWMGRIDTGNGNVKFDPKFQGRVTITTDTSASTAYMELSSLRSEDTAVYYCAPYGYGFHSWGQGTLVTVSS
VL: DIQMTQSPSSLSASVGDRVTITCRASENIYRTLAWYQQKPGKAPKLLIYAATTLASGVPSRFSGSGSGTDFTLTISSLQPEDFATYYCQHFWGTPWTFGQGTKVEIK
notes: human constant region
B4: CD81K13 HC 06-hVH_1_3 / LC 06-hVK_1_39 (antibody, V domains shown)
VH: QVQLVQSGAEVKKPGASVKVSCKASGYTFKDSYLHWVRQAPGQRLEWMGRIDTGNGNVKFDPKFQGRVTITTDTSASTAYMELSSLRSEDTAVYYCAPYGYGFHSWGQGTLVTVSS
VL: DIQMTQSPSSLSASVGDRVTITCRASENIYRTLAWYQQKPGKAPKLLIYAATTLASGVPSRFSGSGSGTDFTLTISSLQPEDFGTYYCQHFWGTPWTFGQGTKVEIK
notes: human constant region
B5: CD81K13 HC 5b-hVH_1_69-GA / LC 07-hVK_1_27 (antibody, V domains shown)
VH: QVQLVQSGAELVKPGSSVKVSCKASGFNFKDSYLHWVRQAPGQGLEWMGRIDTGNGNVKFDPKFQGRVTITTDESTSTAYMELSSLRSEDTAVYYCVPYGYGFHSWGQGTLVTVSS
VL: DIQMTQSPSSLSASVGDRVTITCRASENIYRTLAWYQQKPGKVPKLLIYAATTLASGVPSRFSGSGSGTDFTLTISSLQPEDVGTYYCQKFWGTPWTFGQGTKVEIK
notes: human constant region
B6: CD81K13 HC 06-hVH_1_3 / LC 04-hVK_1_9 (antibody, V domains shown)
VH: QVQLVQSGAEVKKPGASVKVSCKASGYTFKDSYLHWVRQAPGQRLEWMGRIDTGNGNVKFDPKFQGRVTITTDTSASTAYMELSSLRSEDTAVYYCAPYGYGFHSWGQGTLVTVSS
VL: DIQLTQSPSFLSASVGDRVTITCRASENIYRTLAWYQQKPGKAPKLLIYAATTLASGVPSRFSGSGSGTEFTLTISSLQPEDFGTYYCQHFWGTPWTFGQGTKVEIK
notes: human constant region
B7: CD81K13 HC 06-hVH_1_3 / LC 5b-hVK_1_39-GA (antibody, V domains shown)
VH: QVQLVQSGAEVKKPGASVKVSCKASGYTFKDSYLHWVRQAPGQRLEWMGRIDTGNGNVKFDPKFQGRVTITTDTSASTAYMELSSLRSEDTAVYYCAPYGYGFHSWGQGTLVTVSS
VL: DIQMTQSPSSLSASVGDRVTITCRASENIYRTLAWYQQKPGKAPKLLIYGATTLADGVPSRFSGSGSGTDFTLTISSLQPEDFATYYCQHFWGTPWTFGQGTKVEIK
notes: human constant region
B8: CD81K13 HC 5b-hVH_1_69-GA / LC 06-hVK_1_39 (antibody, V domains shown)
VH: QVQLVQSGAELVKPGSSVKVSCKASGFNFKDSYLHWVRQAPGQGLEWMGRIDTGNGNVKFDPKFQGRVTITTDESTSTAYMELSSLRSEDTAVYYCVPYGYGFHSWGQGTLVTVSS
VL: DIQMTQSPSSLSASVGDRVTITCRASENIYRTLAWYQQKPGKAPKLLIYAATTLASGVPSRFSGSGSGTDFTLTISSLQPEDFGTYYCQHFWGTPWTFGQGTKVEIK
notes: human constant region
B9: CD81K13 HC 06-hVH_1_3 / LC 03-hVK_1_9 (antibody, V domains shown)
VH: QVQLVQSGAEVKKPGASVKVSCKASGYTFKDSYLHWVRQAPGQRLEWMGRIDTGNGNVKFDPKFQGRVTITTDTSASTAYMELSSLRSEDTAVYYCAPYGYGFHSWGQGTLVTVSS
VL: DIQLTQSPSFLSASVGDRVTITCRASENIYRTLAWYQQKPGKAPKLLIYAATTLASGVPSRFSGSGSGTEFTLTISSLQPEDFATYYCQHFWGTPWTFGQGTKVEIK
notes: human constant region

target: T1, CD81; test: cell ELISA;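 also: antibody binding to HuH7 cells expressing CD81 versus a CD81-negative HuH7 control line, bound antibody detected by secondary reagent, absorbance at 450 nm with 620 nm reference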

Row | Binder | ELISA data
1 | B1 | 0.684
2 | B2 | 0.388
3 | B3 | 0.315
4 | B4 | 0.323
5 | B5 | 0.11
6 | B6 | 0.371
7 | B7 | 0.37
8 | B8 | 0.528
9 | B9 | 0.352
